Test results from paper PMC12325614 (Nature Communications, 2025).

B1: TE9 whole antibody in human IgG1 format (antibody, V domains shown)
VH: QVQLQQSGAALVKPGTSVKLSCKASGYTFTSYWMHWVKQRPGQGLEWIGMIHPKSGSVDYNEKFTNKATLTGDKSSGTAYMQLSSLTSEDSAVYYCARGGYGSPFDYWGQGTTVTVSS
VL: ENVLTQSPAIMSASPGEKVTMTCSASSSVSYMYWYQQKPGSSPRLLIYRTSNLASGVPARFSGSGSGTSYSLTISSMEAEDAATYYCQQWSSNPPTFGGGTKLEIK
B2: MGA271 whole antibody in human IgG1 format (antibody, V domains shown)
VH: EVQLVESGGGLVQPGGSLRLSCAASGFTFSSFGMHWVRQAPGKGLEWVAYISSDSSAIYYADTVKGRFTISRDNAKNSLYLQMNSLRDEDTAVYYCGRGRENIYYGSRLDYWGQGTTVTVSS
VL: DIQLTQSPSFLSASVGDRVTITCKASQNVDTNVAWYQQKPGKAPKALIYSASYRYSGVPSRFSGSGSGTDFTLTISSLQPEDFATYYCQQYNNYPFTFGQGTKLEIK

Biological target: 4-Ig human B7H3 (analyte of the Biacore SPR) (Homo sapiens, UniProt Q5ZPR3)
Sequence (Q5ZPR3 29-466): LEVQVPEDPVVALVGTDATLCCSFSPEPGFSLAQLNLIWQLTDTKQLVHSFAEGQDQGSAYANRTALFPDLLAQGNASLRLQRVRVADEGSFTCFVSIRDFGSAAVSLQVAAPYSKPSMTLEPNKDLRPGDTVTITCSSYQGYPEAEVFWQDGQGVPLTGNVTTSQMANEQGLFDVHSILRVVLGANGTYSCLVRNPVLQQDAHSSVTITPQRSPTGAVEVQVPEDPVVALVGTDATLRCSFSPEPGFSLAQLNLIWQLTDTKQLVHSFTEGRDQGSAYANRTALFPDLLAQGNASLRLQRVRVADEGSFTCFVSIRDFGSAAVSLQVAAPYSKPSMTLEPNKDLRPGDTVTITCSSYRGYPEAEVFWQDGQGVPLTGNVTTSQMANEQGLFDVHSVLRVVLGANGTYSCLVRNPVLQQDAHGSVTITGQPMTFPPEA
Experiment: SPR

Kd [nM]	Binder
0.44	B1
1.61	B2
